{
  "source": "patent US8652790",
  "about": "(University of Pennsylvania, dated 2014)",
  "binders": {"B1": {"name": "PDE(p), peptide of the calmodulin-binding domain of phosphodiesterase (C15S) (peptide)", "peptide": "QTEKMWQRLKGILRSLVKQ", "notes": "C15S is used to avoid oxidation; also called PDEs(p)"}, "B2": {"name": "eNOS(p), peptide of the calmodulin-binding domain of endothelial nitric oxide synthase (peptide)", "peptide": "RKKTFKEVANAVKISASLMG", "notes": "Synthetic peptide for ITC and for titration of CaM; The expressed version used for target-domain NMR carries an extra amino-terminal GS"}, "B3": {"name": "CaMKI(p), peptide of the calmodulin-binding domain of calmodulin kinase I (peptide)", "peptide": "AKSKWKQAFNATAVVRHMRKLQ", "notes": "Synthetic peptide for ITC and for titration of CaM; The expressed version used for target-domain NMR carries an extra amino-terminal GS; also called CaMK1p"}, "B4": {"name": "nNOS(p), peptide of the calmodulin-binding domain of neuronal nitric oxide synthase (peptide)", "peptide": "KRRAIGFKKLAEAVKFSAKLMGQ", "notes": "Synthetic peptide for ITC and for titration of CaM"}},
  "key": {"[1]": {"target": "T1, calcium-saturated calmodulin (human CaM, GenBank AAD45181) (human, UniProt P0DP23 2-149)", "assay": "isothermal titration calorimetry, CaM (200 µM) titrated into 5-20 µM peptide, 308 K"}, "[2]": {"target": "T1, calcium-saturated calmodulin (human …)", "assay": "isothermal titration calorimetry, CaM (200 µM) titrated into 5-20 µM peptide, 308 K; footnote c: From Frederick et al."}},
  "data": [
    {"binder": "B1", "values": [
      {"measurement": "-TΔSbinding^total", "setting": "[1]", "value": 33.9, "unit": "kJ/mol"},
      {"measurement": "ΔGbinding^total", "setting": "[1]", "value": -37.9, "unit": "kJ/mol"},
      {"measurement": "ΔHbinding^total", "setting": "[1]", "value": -71.8, "unit": "kJ/mol"}
    ]},
    {"binder": "B2", "values": [
      {"measurement": "-TΔSbinding^total", "setting": "[1]", "value": 25.7, "unit": "kJ/mol"},
      {"measurement": "ΔGbinding^total", "setting": "[1]", "value": -49.2, "unit": "kJ/mol"},
      {"measurement": "ΔHbinding^total", "setting": "[1]", "value": -74.9, "unit": "kJ/mol"}
    ]},
    {"binder": "B3", "values": [
      {"measurement": "-TΔSbinding^total", "setting": "[2]", "value": 69.6, "unit": "kJ/mol"},
      {"measurement": "ΔGbinding^total", "setting": "[2]", "value": -49.5, "unit": "kJ/mol"},
      {"measurement": "ΔHbinding^total", "setting": "[2]", "value": -119, "unit": "kJ/mol"}
    ]},
    {"binder": "B4", "values": [
      {"measurement": "-TΔSbinding^total", "setting": "[1]", "value": -1.9, "unit": "kJ/mol"},
      {"measurement": "ΔGbinding^total", "setting": "[1]", "value": -51.7, "unit": "kJ/mol"},
      {"measurement": "ΔHbinding^total", "setting": "[1]", "value": -49.9, "unit": "kJ/mol"}
    ]}
  ]
}
